Assay: label from the status in PepcDB records

Sequence	protein production
MSLSHKAWQNAHAMYENDACAKALGIDIISMDEGFAVVTMTVTAQMLNGHQSCHGGQLFSLADTAFAYACNSQGLAAVASACTIDFLRPGFAGDTLTATAQVRHQGKQTGVYDIEIVNQQQKTVALFRGKSHRIGGTITGEAEGGSHHHHHH	not failed
MAHPPQIRIPATYLRGGTSKGVFFRLEDLPESCRVPGEARDRLFMRVIGSPDPYAAHIDGMGGATSSTSKCVILSKSSQPGHDVDYLYGQVSIDKPFVDWSGNCGNLSTGAGAFALHAGLVDPARIPEDGICEVRIWQANIGKTIIAHVPVSGGQVQETGDFELDGVTFPAAEIVLEFLDPSDDGEDGGAIFPTGNLVDDLEVPGVGTFKATMINAGIPTVFVNAEEIGYRGTELREEINGDPQQLARFERIRVAGALRMGLIKTPEEAATRQHTPKIAFVAPPRDYRTASGKLVAAGDIDLLVRALSMGKLHHAMMGTAAVAIGTAAAIPGTLVNLAAGGGERSAVRFGHPSGTLRVGAEASQANGEWTVTKAIMSRSARILMEGWVRVPGDAF	not failed
MTKLINFLAEYQREIESQPIELDLALFSRLVGLPFEAVLTQPSAPLVEACMKLIEFVDNENYLILPADRQMLEQIAFSNRYQSVQICDVVQGPHRFLAATFVLSKTTKVIAFRGPNGTLLSWKADLHFSFSSINKLKIQAHQYLLQALQHDNQNIYCVGFSQGASIAALACMDISDTHRHRIQTIIFDSPGLPDDHYQSPIPIIELVPPLSLFALVGEHPFHQITISSSSTGIWQHDLYSWEADSHGEFAKNIGITNPTTIQHQFIQLLPSNITDENIDRTLNVAISIFSQLNFHSTSELIKHWNQFNALIQTEITAENIVVKTAILRLQKLIFKNAALNLQSIPLN	failed
MDNLNVFANEDNQVNGLKRPPPSRVCPRCDSDNTKFCFYNNYSESQPRYFCKNCRRYWTHGGALRNIPVGGSCRKPKRLKVDQSSISEMVSVENQPINHQSFRQTQENNEFVRSFDASSSATVTAVPNHFGYLSELHGVTNLLPIQSFRTMDCLDFGDESFQQGYYDVGSNDLIDNPLINQSIGGYVDNLTSYCINQVEPKLQPRYEHES	failed
MFGPFKPAPHIAELPAEKIDSTYKRLRWQVFAGIFFGYAAYYFVRANFDLAQPGLIQAGLYSKAELGVIGSAAGLAYGLSKFVMAGMSDRSNPRVFLPFGLLLSGLCMTLMGLFPWATSGIAIMWVMIFLNGWFQGMGWPPCGRTMVHWWSKSERGTIVSIWNTAHNIGGMVPGAMVLLASAIFFSTHGIEAQAKDVWQQSLYFPGIAAMIFAIPVYFVMRDTPQSCGLPSIEKWRNDYPDDYNEKTYENDLTAKEIFVTYVLKNKLLWYIAIANVFVYLIRYGVLKWSPVYLSEVKHFNIKGTAWAYTIYELAAVPGTLLCGWVSDKVFKGKRGLTGFIFMILTTAAVVAYWMNPATPEAELANYSAWYENPYQLTDFVLMTLIGFLIYGPVMLIGLHALELAPKKAAGTAAGFTGLFGYLGGTVSASAVIGWAAQHYGWDGGFYVMIGGGVLAVLLLLIVMVEEGKHKAKLGDTYGTK	failed
MRPKANQNHKLKVLLVFLLATLILIFIVRSTLTSSQEHQTPQETRSTRCSGACNKLPRSLAQALIHYSTSVITPQQTLKEIAVSSRVLGKKSPCNFLVFGLGHDSLMWSSLNYGGRTVFLEEDEAWIKQIKRRFPMLESYHVTYDSKVNQADNLIEVGKGPECTAIGDPRYSMCQLALKGLPAEIYETGWDLIMVDAPTGYYDEAPGRMTAIYTAGMMARNRKQGGETDVFVHDVNREIEDKFSKAFLCEGYMKKQEGRLRHFIIPSYRDGSESESNRPFCP	failed
MSLSINSREVLAEKVKNAVNNQPVTDMHTHLFSPNFGEILLWDIDELLTYHYLVAEVMRWTDVSIEAFWAMSKREQADLIWEELFIKRSPVSEACRGVLTCLQGLGLDPATRDLQVYREYFAKKTSEEQVDTVLQLANVSDVVMTNDPFDDNERISWLEGKQPDSRFHAALRLDPLLNEYEQTKHRLRDWGYKVNDEWNEGSIQEVKRFLTDWIERMDPVYMAVSLPPTFSFPEESNRGRIIRDCLLPVAEKHNIPFAMMIGVKKRVHPALGDAGDFVGKASMDGVEHLLREYPNNKFLVTMLSRENQHELVVLARKFSNLMIFGCWWFMNNPEIINEMTRMRMEMLGTSFIPQHSDARVLEQLIYKWHHSKSIIAEVLIDKYDDILQAGWEVTEEEIKRDVADLFSRNFWRFVGRNDHVTSVKVEQQTEGHHHHHH	not failed
MINVLILGAASQISRFLIPDLLADKTVYLTLFARQAPQRLGQYAGESRVTLVDGDWNQEADIEQVMSNQDIVFLASSSLVGNQNVVTVMKHTGVQRLIVAGGLGIDDEVAGKFGNWNTRMMGDYTPYKQAAKVILDSGLNTTYLRMTWLYDENGNEKYQIVPEGQPLRGTQVTRQAVAKLVTAIVRQPSLYQYANIGVVEPGTEWDKPSFYLEHHHHHH	failed
MGSSHHHHHHSSGLVPRGSHRSEFSSRSGYGEYVQQTLQPGMRVRMLDDYEEISAGDEGEFRQSNNGIPPVQVFWQSTGRTYWVHWHMLEILGPEEATEDKASAAVEKGAGATVLGTAFPS	not failed
MFRVLHLADLHLGYRPDLPAPVREEVYRARNRVLQAAVDLALDPRQGISLVLIAGDLFDNHRPEASLVEETIRQLTRLEAAGIQVITVPGNHDEITYNDAVYRREAGRWPGLLVTDPMPAKVATLKVKGDTCHLMAMAYTGGVTRVDGPLKAFPPAEGEGVNLAVFHGSLDWDGGERSLPLDGEALAAAGYDYIALGHIHRGGQRRLGRGLAVYAGMVAGKGFADPGTGSWTIVTLGDGPARVEQVPARVTPWRLVDLDVTAFQEPEELETAVRDALDPGALMQVRLTGSLAFDLDLEGLQARLGHPCPYLELVNETAGWTPEILESIAAEPTIRGLFVRRLQEKLAGSAGPGEAEVIRRAIFRGLLALKGGSR	failed
MANYPKELPAQTQSRQPGIESEMNPSPVYEYEDYKGADKLKGKVALITGGDSGIGRAVSVAYAKEGADIAIVYKDEHEDAEETKKRVEQEGVKCLLIAGDVGEEEFCNEAVEKTVKELGGLDILVNNAGEQHPKESIKDITSEQLHRTFKTNFYSQFYLTKKAIDYLKPGSAIINTTSINPYVGNPTLIDYTATKGAINAFTRTMAQALVKDGIRVNAVAPGPIWTPLIPATFPEETVAQFGQDTPMGRPGQPVEHVGCYVLLASDESSYMTGQTLHVNGGNFVT	not failed
MESGNVVNTQPELSGIIDGSKSYMYEQLWKLCAGPLCDIPKLGEKVYYFPQGHIELVEASTREELNELQPICDFPSKLQCRVIAIQLKVENNSDETYAEITLMPDTTQVVIPTQNQNQFRPLVNSFTKVLTASDTSVHGGFSVPKKHAIECLPPLDMSQPLPTQEILAIDLHGNQWRFRHIYRGTAQRHLLTIGWNAFTTSKKLVEGDVIVFVRGETGELRVGIRRAGHQQGNIPSSIVSIESMRHGIIASAKHAFDNQCMFIVVYKPRSSQFIVSYDKFLDVVNNKFNVGSRFTMRFEGDDFSERRSFGTIIGVSDFSPHWKCSEWRSLEVQWDEFASFPRPNQVSPWDIEHLTPWSNVSRSSFLKNKRSREVNEIGSSSSHLLPPTLTQGQEIGQQSMATPMNISLRYRDITEDAMTPSRLLMSYPVQPMAKLNYNNVVTPIEENITTNAVASFRLFGVSLATPSVIKDPVEQIGLEISRLTQEKKFGQSQILRSPTEIQSKQFSSTRTCTKVQMQGVTIGRAVDLSVLNGYDQLILELEKLFDLKGQLQARNQWEIAFTNNEEDKMLVGEDPWPEFCNMVKKIFIYSKEEVKNLKSRKSLSS	failed
MKVIEVTHPIQSNQFITENVAMAFGFFDGMHRGHDKVFQVLDEKAKEHQLKKAVMTFDPHPSVVLNPERKRTTYLTPLSDKLEMIAEHGIDYCIVINFSSRFANVTSDDFIKNYIINNHVKEVIAGFDFTFGKFGKGNMTVLQESKAFNTTIVGKQEMDSEKISTTAIRQALTDGHLQKANDELGYIYRIKGTVVQGEKRGRTIGFPTANVQPSDDYVLPKKGVYAVSMEIGPESKLHRGVANVGVKPTFHDPTRAELVIEVNIFDFNENIYGERVTVYWHHFLRPEVKFDGIDPLVKQMNEDKAQAKHLLSIDFDDDISYNI	failed
MCYAASKLWNVCNYERHHYKELGLEKYPDWYYQKKAHKGDLWYRQLPSQTAQETCKQLDKAWKSFYVLKKTGGIKEPNPPRFKQDNIPVTYMQMGIRHEKGSDQLRLSLPRDLKSYMEETYGIHEKFLYLENKIFRNMDHIKQLRIYPPENGTCELIVIYEIEEPEQLSQNGHYLSVDLGLHNLMTCYDSGNGRTFILGRKYLSLERYFHKEIARVQSVWYAQQSERGIKYPKSSKHIQRLYRKKQNAVKDYLHKTTRWIAEYCRKEDIRCVVVGDIRNIRKEKDMGHKTNQKFHGLPYNRLYIMLEYKLKLYGIQLIKQEESYTSQCSPLSPEVSKRHAEASNRKERGMYITDGVRFNADAVGAFNILRKHLSVSGKQKEMSVTGLKTPEIIKVAA	failed
MVLTLDLADPAQPEHVFIVEDSRGATELKLYKSHYTIGKADSCDIRLHSIYASRQHATLVRFLTENGEVRYRLIDGDPETSRRSANGTYVNNRSITECDLKHYDQILFGADVKATYFYLSPQFRSLEHHHHHH	not failed
MMDSVKNASENISRRLSRTWDHISDGWRELVHHGSDALTHFVHRKGEEDKGQEAAASTPAFPRWSILAGDMEETDREIVVRIEVPGMEKKDFEISIEGKTLSLRGEKRFERDTNDSKYHVMERAYGVFQRTLPLPVEVNEDKAEADYKNGVLTVRLPKLNVEKRRFISIS	failed
SKSSEKRQAVDTAVDGVFIRSLKVNCKVTSRFAHYVVTSQVVNTANEAREVAFDLEIPKTAFISDFAVTADGNAFIGDIKDKVTA	failed
MDKHIIGENAGKLWRLLSTDVHRKWTLQEVKDATGFNDLEAASAIGWLAREDKIQFELEHHSTKDKNVFLYLMLNVYFLEHHHHHH	not failed
MNEIHQPLARRVWRSNVDEEMARMAECLKRFPLIAFDTEYPGIIFRTYFDSSSDECYRAMKGNVENTKLIQCGFTLFNAKGEIGGVWEINFSNFGDPSDTRNELSIEFLRRHGLDLQKIRDEGVDMFGYGFFPKLMTVFRSQKHVEFVTFQGAYDFAYFLSILNHGKLPETHGEFATEVVKVFGQVYDTKVMAGFCEGLGEHLGLSKLAQLLQITRVGRAHHAGSDSLMTALVFIKLKHVYEDSRFARGLIYGIGKSNLVAAPAPAPVPEPTLPLMCQQNVASYPVFHNGYVQNYEQPQLVSYDPSGAPWAFCNATGTYVQLTHLPASTFAYPSQTPSATVDYLGPVPNYYNNNACYVVE	failed
MKKVCLSLLMGLMVQMTFGQTLEKMQWFNEPEQWEIKNNVLSMSVTPQSDYWRISHYGFTVDDAPFYYATYGGEFEAKVKVVGEYKERFDQAGLMLRIDHENYIKAGIEFVDGKFNLSTVVTHKTSDWSVITLDKTVPYIWIKAVRRLDAVEIFYSFDDKTYTLMRNAWLQDHIPVKVGLMAACPDGSGFNAKFEYFQVKHLPDQRRVEWLKKNAELEHHHHHH	failed
EMVDDQAMNEQLYYYFDPGDFKPPLVVYFSGFRLALGVEGANMMRALEAPALIFGEQRILGGSFYVGSKKFEQEIVRIIQTTLKKLGFTANQLVLSGLSMGTYASLYY	failed
MKLIQMSDHIYKLNIQTTVGIPIQINTWFIVNDNDVYIIDTGMDDYAELQITIAKSLGNPKGIFLTHGHLDHINGAKRISEALKIPIFTYKNELPYINGELPYPNKTHTENTGVQYIVKPLETNTNLPFNYYLTPGHAPGHVIYFHNQDKILICGDLFISDAQHLHIPIKKFTYNMTENIKSGQIIDNLCPKLITTSHGDDLYYSDDIYSIYKFKYEELEHHHHHH	failed

— a protein production outcome set (Wang et al. 2014)
